These results are taken from patent US20060165684A1 (published 2006).

Substitutions are numbered along the chain they refer to.

B1: chimeric Neliximab (antibody, V domains shown)
VH: EVQLQQSGPELVKPGASVKMSCKASGYTFTTYVMHWVKQKPGQGLEWIGYINPYNDGTNYNEKFKGKATLTSDKSSSTAYMELSTLTSEDSAVYYCAEFITKTVGGSNWYLDVWGAGTTVTVSS
VL: QIVLTQSPAIMSASPGEKVTMTCSASSSISYIHWFQQKPGTSPKRWIYDTSKLPSGVPARFSGSGSGTSYSLTISSMEAEDAATYYCHQRSSYTWTFGGGTKLEIKR
notes: Murine VH and VL joined to human gamma 1 (pConGamma1f vector) and human kappa (pConKappa vector) constant regions, made in NSO or CHO cells; also called chimeric antibody of clone 17-1; chimerized #17
B2: murine Neliximab (antibody, V domains shown)
VH: B1 VH
VL: B1 VL
notes: also called #17; Clone 17
B3: murine Metiliximab (antibody, V domains shown)
VH: EVQLQQSGPELVKPGASVKMSCKASGYTFTSYVIHWVKQKPGQGLEWIGYINPYNYDTKYNEKFKGEATLTSDKSSNTAYMELSSLTSEDSAVYYCAGFFTRAVGGSYWYLDVWGAGTTVTVSS
VL: B1 VL with P54V, S76N, E80A, S92A, Y93S
notes: also called #9; Clone 9

In the test the target is T1, peptide 6 (TIRC7 derived peptide).
T1 construct: also called Peptid6; Vol 6
T1 peptide: DLPDASVNGWSSDE
Kind of test: solution equilibrium titration with peptide, free antibody by ELISA (method of Friquet et al 1985), Klotz plot. (In an ELISA, binding on a coated surface is turned into a signal by an enzyme label.)
The Kd is the equilibrium constant for the complex coming apart. B1 returned a Kd of 1 nM.
Then B2, with 1 nM.
The molecule B3 had a Kd of 0.5 nM.
